Measured values taken from article PMC10288512, “MUC1 Glycopeptide Vaccine Modified with a GalNAc Glycocluster Targets the Macrophage Galactose C-type Lectin on Dendritic Cells to Elicit an Improved Humoral Response” (Journal of the American Chemical Society, 2023).

B1: recombinant MGL (macrophage galactose-type lectin) tagged with a human IgG1 Fc fragment (Fc fusion)
chain: QNSKFQRDLVTLRTDFSNFTSNTVAEIQALTSQGSSLEETIASLKAEVEGFKQERQAGVSELQEHTTQKAHLGHCPHCPSVCVPVHSEMLLRVQQLVQDLKKLTCQVATLNNNASTEGTCCPVNWVEHQDSCYWFSHSGMSWAEAEKYCQLKNAHLVVINSREEQNFVQKYLGSAYTWMGLSDPEGAWKWVDGTDYATGFQNWKPGQPDDWQGHGLGGGEDCAHFHPDGRWNDDVCQRPYHWVCEAGLGQTSQESH

What was measured:
[1] = target: MGL receptor on murine bone marrow-derived dendritic cells (mouse (endogenous in BMDCs)) (UniProt Q8JZN1)
[2] = target: peptide 13, MUC1 tandem repeat (glyco)peptide with the TPEaa trivalent alpha-S-GalNAc glycocluster 1 at the N-terminus, biotinylated; assay: ELISA; biotinylated peptides 9-14 coupled to streptavidin-coated plates at twofold serial dilutions; probed with recombinant MGL-Fc at a constant concentration; detection with goat anti-human Fc-peroxidase; EC50 from curve fitting over the peptide concentration
[3] = target: peptide 12, MUC1 tandem repeat peptide with the TPEaa trivalent alpha-S-GalNAc glycocluster 1 at the N-terminus, biotinylated; assay: as above
[4] = target: peptide 14, MUC1 tandem repeat (glyco)peptide with a triethylene glycol spacer and the TPEaa trivalent alpha-S-GalNAc glycocluster 1 at the N-terminus, biotinylated; assay: as above

Sequence of UniProt Q8JZN1 (Q8JZN1 entry or part of it): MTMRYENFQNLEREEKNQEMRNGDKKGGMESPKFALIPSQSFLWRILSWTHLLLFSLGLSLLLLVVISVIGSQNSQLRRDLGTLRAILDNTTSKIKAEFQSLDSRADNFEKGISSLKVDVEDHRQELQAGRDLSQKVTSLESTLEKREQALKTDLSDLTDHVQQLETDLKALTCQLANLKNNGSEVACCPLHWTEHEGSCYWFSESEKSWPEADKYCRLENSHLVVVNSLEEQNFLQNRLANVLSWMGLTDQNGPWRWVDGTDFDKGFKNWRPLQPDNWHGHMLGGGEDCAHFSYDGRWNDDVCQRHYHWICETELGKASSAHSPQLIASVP

Row | Molecule | decrease in accessible MGL on the BMDC surface (anti-MGL antibodies, flow cytometry) after treatment with peptide 12 for 30 min at 37 °C, against untreated cells [1] [%] | EC50 [2] [nM] | fold avidity against peptide 11 [2] [fold] | fold avidity against peptide 11 [3] [fold] | EC50 [4] [nM]
1 | peptide 12, MUC1 tandem repeat peptide with the TPEaa trivalent alpha-S-GalNAc glycocluster 1 at the N-terminus, biotinylated | 48 |  |  |  | 
2 | B1 |  | 3.9 | 10 | 10 | 2.65
